Results: US20060009380A1 (L OREAL, published 2006)

Target: T1, transglutaminase 3 (human, UniProt Q08188 2-693, limits assumed)
T1 sequence (looked up): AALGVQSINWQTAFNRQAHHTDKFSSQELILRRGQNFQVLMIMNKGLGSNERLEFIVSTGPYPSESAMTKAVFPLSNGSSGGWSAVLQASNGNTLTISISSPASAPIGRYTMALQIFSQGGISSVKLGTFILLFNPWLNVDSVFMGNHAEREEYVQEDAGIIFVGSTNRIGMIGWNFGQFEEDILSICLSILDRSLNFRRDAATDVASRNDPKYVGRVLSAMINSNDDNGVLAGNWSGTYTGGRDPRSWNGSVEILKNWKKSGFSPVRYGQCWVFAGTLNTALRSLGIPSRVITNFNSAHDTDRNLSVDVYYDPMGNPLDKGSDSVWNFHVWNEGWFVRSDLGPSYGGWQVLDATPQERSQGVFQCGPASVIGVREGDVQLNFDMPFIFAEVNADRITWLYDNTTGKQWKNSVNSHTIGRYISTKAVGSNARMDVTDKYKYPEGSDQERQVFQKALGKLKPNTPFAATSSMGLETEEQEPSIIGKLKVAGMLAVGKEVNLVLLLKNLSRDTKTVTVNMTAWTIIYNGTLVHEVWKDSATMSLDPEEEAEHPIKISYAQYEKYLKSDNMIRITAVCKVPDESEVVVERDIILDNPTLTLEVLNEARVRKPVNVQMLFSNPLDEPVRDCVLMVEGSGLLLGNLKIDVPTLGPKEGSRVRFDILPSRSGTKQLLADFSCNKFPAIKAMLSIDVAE
Test: affinity chromatography: CLSP on CNBr-sepharose, human epidermis extract loaded with calcium chloride, eluted with EDTA, held protein sequenced
Description: The coupling efficiency was 0.95 mg of polypeptide per milliliter of balls. Human epidermis (0.83 g of abdominal skin obtained from plastic surgery and 100 g of plantar stratum corneum) was homogenized with polytron in 10 ml and 120 ml respectively of 10 mmol of Hepes buffer, pH 7.4, containing 150 mmol of sodium chloride, 0.1% (weight/volume) of triton X100 and a mixture of protease inhibitors (Complete™ EDTA-free of Roche Molecular diluted with […] of depepstatin).
The suspension is then centrifuged at 10,000 g for 10 minutes at 4° C. The supernatant is filtered at 0.22 and adjusted with 2.5 mmol of calcium chloride before passing at ambient temperature through the affinity column. The columns are then washed with 10 volumes of 10 mmol Hepes buffer, pH 7.4, containing 150 mmol of sodium chloride, 0.1% (weight/volume) of triton X100 and a mixture of protease inhibitors. The elution is carried out by using the same buffer that contains 5 mmol of EDTA instead of 2 mmol of calcium chloride.
The eluted proteins are subjected to a denaturing gel electrophoresis (SDS-PAGE) and after migration, they are colored with silver with a silver coloration kit of the Amersham Pharmacia Biotech Company and according to the recommendations of the manufacturer.

B1: CLSP (calmodulin-like skin protein), the polypeptide of the invention (other)
chain: AGELTPEEEAQYKKAFSAVDTDGNGTINAQELGAALKATGKNLSEAQLRKLISEVDSDGDGEISFQEFLTAARKARAGLEDLQVAFRAFDQDGDGHITVDELRRAMAGLGQPLPQEELDAMIREADVDQDGRVNYEEFARMLAQE
notes: also called skin protein similar to calmodulin
- binding result: binds
